In this experiment the target is IgM-BCR (Ighm) (mouse (endogenous in primary B cells)).

Take “recombinant mouse galectin-9 (rGal9, E. coli-derived, R&D Systems) (from UniProt O08573 1-353) (natural protein)”: the median diffusion coefficient of IgM in galectin-9-high regions (against 0.028 μm^2/s in galectin-9-low regions), single-particle tracking on Gal9-KO B cells treated with fluorescently labeled rGal9 worked out at 0.012 μm^2/s.

These data come from PMC6098130.
